{
  "source": "patent US20260265696A1",
  "about": "“HUMAN IPSC DERIVED AMELOBLASTS AND USES THEREOF” (UNIVERSITY OF WASHINGTON, priority 2021, published 2026)",
  "tested_on": "hiPSCs (WTC-11) differentiating to ameloblasts (iAM)",
  "test": "AMBN expression (QRT-PCR) in hiPSC-derived ameloblast (iAM) differentiation, day 10 to day 16, factors removed or added",
  "assay_type": "cell-based, human",
  "protocol": "FIGS. 7A-7E: (FIG. 7A) Schematic of the 16-day differentiation protocol produced, which targets the identified signaling pathways utilizing growth factors and small molecules to transition through the ameloblast developmental trajectory. […] Each study was performed in triplicate, with error bars representing SEM. (FIG. 7C) The efficiency of each pathway activated in the differentiation from day 10 to day 16 were assessed by removing each agonist one at a time or adding FGFR2 mini binder to inhibit the FGFR2 pathway. AMBN expression was assessed in QRT-PCR, and each condition was performed in triplicate. Significance was determined by unpaired Student's t-test; ***p<0.001; ****p<0.0001; Graph error bars are the means±SEM.\nTo dissect which pathways were essential for the differentiation from day 10 to day 16, the process of elimination was used (FIG. 7C). […] It was hypothesized that the cells in culture secrete enough FGF ligands to saturate the receptors, and any exogenous ligands would have minimal effects. To test this hypothesis, a computationally designed protein was used, FGFR2 mini-binder (FGFR-mb), that specifically binds and inhibits the activity of the FGFR2 (Cao et al., 2022). […]\nRNA was extracted using Trizol (Life Technologies) according to manufacturer's instructions. RNA samples were treated with Turbo DNase (Thermo Fisher Scientific) and quantified using Nanodrop ND-1000. […]",
  "data": [
    {"molecule": "FGFR2-binder: computationally designed protein that specifically binds and inhibits the activity of the FGFR2; binding sequence SEQ ID NO. 1 (protein) MGDRRKEMDKVYRTAYKRITSTPDKEKRKEVVKEATEQLRRIAKDEEEKKKAAYMISFLKTLGLEHHHHHH", "values": [
      {"measurement": "expression of AMBN on adding FGFR2 mini-binder", "setting": "50 nM FGFR-mb added at day 14, harvested at day 16", "value": "almost totally abolished"}
    ]},
    {"molecule": "BMP4: bone morphogenic protein-4 (protein, UniProt P12644 293-408, looked up) Bone morphogenetic protein 4: SPKHHSQRARKKNKNCRRHSLYVDFSDVGWNDWIVAPPGYQAFYCHGDCPFPLADHLNSTNHAIVQTLVNSVNSSIPKACCVPTELSAISMLYLDEYDKVVLKNYQEMVVEGCGCR", "values": [
      {"measurement": "expression of AMBN when the factor is removed", "setting": "factor removed independently from differentiation day 10 to day 16, compared to when all factors are present", "value": "significantly reduced to less than half"}
    ]}
  ]
}
